“Also recorded” adds a separate entry of the source. Where two headings read alike, the source gives them in different places.
Assays:
mice = mice (Lewis, 1996); cited from earlier work
guinea pigs = test: Succinylcholine lethality in guinea pigs; format: in vivo; settings: intravenous
From the text: To further understand the effect and kinetics of BChE-mediated SC detoxification using continuous vital sign monitoring, the inventors moved to a larger rodent model of SC toxicity. […] At no point following loss of measurable pulse and venous oxygen saturation did these signs return in animals receiving SC 0.9% saline.

[1] = previously published (Lockridge, 1990), thioester analog assay, cited from earlier work
[2] = reported value (Sun et al., 2002); read-out: KM, cocaine hydrolysis; cited from earlier work
SC-induced apnea [3] = test: Reversal of succinylcholine-induced apnea in mice; format: in vivo, Male FVB/N mice (Mus musculus)
Description: Mouse experiments were conducted as follows. Male FVB/N mice (Mus musculus, 8-12 weeks old) were anesthetized by injection of ketamine/xylazine/acepromazide cocktail at the dose of 0.05 mL per 25 g of total body weight (concentrations were, respectively 21 mg/mL, 2.4 mg/mL, and 0.3 mg/mL). Anesthetized mice were assessed for respiratory rate by counting respirations for 30 seconds using a Littman model 3000 electronic stethoscope placed on the mouse left mid axillary line and extrapolating the per minute rate. Mice were then injected intravenously (tail vein) with 1 mg/kg succinylcholine (time 0 min). At time+3 min mice were injected with pBChE (0.6 mg/kg, ˜15 Upper animal) in 0.9% saline (or 0.9% saline vehicle control) and respiratory rate was obtained as above at the indicated time points. At time+15 minutes all surviving mice were euthanized by CO2 asphyxiation and subsequent cervical dislocation. At no time during the experiment did the mice receive any other therapy including, but not limited to, airway protection/management, artificial ventilations, compressions, or any pharmacological assistance.
Statistical analyses were carried out using the GraphPad Prism software. Log-rank (Mantel-Cox) test was used to determine significance of the difference between survival curves.

[4] = Succinylcholine hydrolase activity assay (96-well, choline oxidase/peroxidase); format: biochemical
Description: Assay of butyrylcholine hydrolysis followed the method of Ellman as described in (Geyer et al., 2010). Succinylcholine hydrolase activity was monitored by the method of George and co-workers (George et al., 1988) with modifications to fit a 96-well plate format. Briefly, our standard succinylcholine-hydrolysis buffer contained 100 mM NaH2PO4/Na2HPO4 buffer pH 7.5, 0.77 mM phenol, 0.15 mM 4-aminoantipyrine, 1 U/mL choline oxidase, and 1.2 U/mL horse raddish peroxidase type I. Appropriate volumes of 10× stock solutions (in 100 mM NaH2PO4/Na2HPO4 buffer pH 7.5) were pre-mixed and dispensed at 160 μL aliquotes onto 96-well plates followed by addition of the substrate succinylcholine chloride (20 μl, final concentrations as indicated). Reactions were started by addition of pBChE (4.74 nM) to yield a final well volume of 200 μl. Hydrolysis was monitored by recording absorbance changes at 500 nm. Self hydrolysis rates were measured on samples that contained no enzyme and were subtracted from the enzymatically catalyzed reaction rates. A choline standard curve was similarly created by using the same assay except that choline chloride replaced succinylcholine (final concentration range of 10-100 μM).
Kinetic analysis was done according to Radic et al. (Radic et al., 1993) as follows. Initial enzyme velocity, V0, was plotted as a function of substrate concentration and the results were fitted by nonlinear regression using GraphPad Prism to the following equation: […]
where [SC] is the concentration of SC, Vmax is maximal velocity, KM is the Michaelis-Menten constant, KSS is the dissociation constant of substrate from the enzyme's peripheral binding site, and b a factor that reflect the efficiency of hydrolysis of the substrate in the presence of another substrate molecule bound at the peripheral site (with substrate activation when b>1).

SC-induced apnea [5] = test: Reversal of succinylcholine-induced apnea in guinea pigs; format: in vivo, Male Hartley guinea pigs (Cavia porcellus)
Description: Guinea pig experiments were conducted as follows. Male Hartley guinea pigs (Cavia porcellus, 8 weeks old) were anesthetized with 90 mg/kg ketamine and 10 mg/kg xylazine. Once anesthetized, baseline heart rate (beats per minute) and Sp02 (%) were obtained using a Surgivet Plus Veterinary Anesthesia and Monitoring Module, model #V3404. Guinea pigs were then injected intravenously (leg vein) with 0.334 mg/kg SC (time 0). Heart rate and Sp02 were obtained every minute throughout the course of the experiment. At time+1 min, groups of three apneic guinea pigs were injected with either pBChE (0.19 mg/kg, ˜48 Upper animal) in 0.9% saline (or 0.9% saline vehicle control). At time+15 minutes all surviving guinea pigs were euthanized by CO2 asphyxiation and subsequent cervical dislocation. As above, guinea pigs received no additional care or therapy during experimentation.
Statistical significance of differences between means of heart rate and Sp02 was tested using 1-way analysis of variance (ANOVA) followed by Bonferronits Multiple Comparison Test.

[6] = 0.334 mg/kg SC i.v., 48 U BChE at 1 min, 3 min following SC injection

Molecule: C[N+](C)(C)CCOC(=O)CCC(=O)OCC[N+](C)(C)C [SC, succinylcholine]
- LD50 (mice): 0.28 mg/kg
- LD100 (guinea pigs): 0.334 mg/kg

B1: WT BChE (protein, UniProt P06276 29-602, looked up)
Cholinesterase: EDDIIIATKNGKVRGMNLTVFGGTVTAFLGIPYAQPPLGRLRFKKPQSLTKWSDIWNATKYANSCCQNIDQSFPGFHGSEMWNPNTDLSEDCLYLNVWIPAPKPKNATVLIWIYGGGFQTGTSSLHVYDGKFLARVERVIVVSMNYRVGALGFLALPGNPEAPGNMGLFDQQLALQWVQKNIAAFGGNPKSVTLFGESAGAASVSLHLLSPGSHSLFTRAILQSGSFNAPWAVTSLYEARNRTLNLAKLTGCSRENETEIIKCLRNKDPQEILLNEAFVVPYGTPLSVNFGPTVDGDFLTDMPDILLELGQFKKTQILVGVNKDEGTAFLVYGAPGFSKDNNSIITRKEFQEGLKIFFPGVSEFGKESILFHYTDWVDDQRPENYREALGDVVGDYNFICPALEFTKKFSEWGNNAFFYYFEHRSSKLPWPEWMGVMHGYEIEFVFGLPLERRDNYTKAEEILSRSIVKRWANFAKYGNPNETQNNSTSWPVFKSTEQKYLTLNTESTRIMTKLRAQQCRFWTSFFPKVLEMTGNIDEAEWEWKAGFHRWNNYMMDWKNQFNDYTSKKESCVGL
- Kcat, succinylcholine [1]: 10 s⁻¹
- Km ([1]; read-out: KM, succinylcholine): 35 µM
- Km [2]: 4.5 µM

B2: pBChE (protein, UniProt P06276 29-602, looked up)
Cholinesterase: EDDIIIATKNGKVRGMNLTVFGGTVTAFLGIPYAQPPLGRLRFKKPQSLTKWSDIWNATKYANSCCQNIDQSFPGFHGSEMWNPNTDLSEDCLYLNVWIPAPKPKNATVLIWIYGGGFQTGTSSLHVYDGKFLARVERVIVVSMNYRVGALGFLALPGNPEAPGNMGLFDQQLALQWVQKNIAAFGGNPKSVTLFGESAGAASVSLHLLSPGSHSLFTRAILQSGSFNAPWAVTSLYEARNRTLNLAKLTGCSRENETEIIKCLRNKDPQEILLNEAFVVPYGTPLSVNFGPTVDGDFLTDMPDILLELGQFKKTQILVGVNKDEGTAFLVYGAPGFSKDNNSIITRKEFQEGLKIFFPGVSEFGKESILFHYTDWVDDQRPENYREALGDVVGDYNFICPALEFTKKFSEWGNNAFFYYFEHRSSKLPWPEWMGVMHGYEIEFVFGLPLERRDNYTKAEEILSRSIVKRWANFAKYGNPNETQNNSTSWPVFKSTEQKYLTLNTESTRIMTKLRAQQCRFWTSFFPKVLEMTGNIDEAEWEWKAGFHRWNNYMMDWKNQFNDYTSKKESCVGL
- survival (SC-induced apnea [3]; 1 mg/kg SC i.v., 15 U (0.6 mg/kg) pBChE at 3 min, three mice): survived; also recorded: survival of all pBChE-treated mice
- protection from SC-induced apnea (SC-induced apnea [3]; respiration rate monitored, FIG. 19): protects mice from SC-induced apnea
- turnover number Kcat=Vmax/[BChE]T, succinylcholine hydrolysis ([4]; [BChE]=4.74 nM): 8.6 ± 0.55 s⁻¹
- Vmax, succinylcholine hydrolysis ([4]; [BChE]=4.74 nM, ±SEM, nonlinear regression): 2.45 ± 0.16 µM/min
- Kss (dissociation constant of substrate from peripheral binding site) ([4]; ±SEM, nonlinear regression): 2.0 ± 0.3 mM
- Km ([4]; ±SEM, nonlinear regression, read-out: KM, succinylcholine hydrolysis): 57 ± 7 µM
- b (substrate activation factor) ([4]; ±SEM, substrate activation when b>1): 2.9±0.1
- heart rate (SC-induced apnea [5]; [6]): at baseline
- spontaneous respirations (SC-induced apnea [5]; [6]): return of spontaneous respirations
- venous oxygenation (SC-induced apnea [5]; [6]): 49%
- heart rate response (SC-induced apnea [5]; 0.334 mg/kg SC i.v., 48 U BChE at 1 min, 5 min post SC injection): post-anoxic tachycardia
- time by which all vital signs had returned to baseline (SC-induced apnea [5]; 0.334 mg/kg SC i.v., 48 U BChE at 1 min, time post SC injection): ≤ 7 min
- protection from high-dose SC-induced apnea (SC-induced apnea [5]; high-dose SC, FIG. 21): fully protects
- return of normal vital signs (SC-induced apnea [5]; sublethal doses of SC, FIG. 20): promotes return of normal vital signs

Reference: patent US20140248684A1, “COMPOSITIONS AND METHODS FOR THE PRODUCTION AND USE OF HUMAN CHOLINESTERASES” (priority 2011, published 2014)
